Changes are numbered by the printed parent chain. Names may count otherwise. Where two headings read alike, the source gives them in different places.
What was measured:
Kv1.3 = Kv1.3 (human (T-cells from human blood donors), UniProt P22001 1-575); test: cell-based or functional assay
CXCR1 [1] = target: T1, CXCR1 (UniProt P25024 1-350, limits assumed); test: cell-based or functional assay
T1 sequence (looked up): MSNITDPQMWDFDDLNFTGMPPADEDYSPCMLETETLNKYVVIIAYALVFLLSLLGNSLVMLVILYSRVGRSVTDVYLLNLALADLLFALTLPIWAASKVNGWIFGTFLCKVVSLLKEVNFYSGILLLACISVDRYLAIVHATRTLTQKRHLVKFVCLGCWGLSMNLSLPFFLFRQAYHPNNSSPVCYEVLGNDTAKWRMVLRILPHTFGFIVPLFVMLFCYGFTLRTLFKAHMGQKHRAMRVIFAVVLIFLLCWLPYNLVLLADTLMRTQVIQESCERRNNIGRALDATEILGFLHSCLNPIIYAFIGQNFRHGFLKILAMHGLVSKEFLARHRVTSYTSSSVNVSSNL

CXCR1 [2] = target: T2, CXCR1 (UniProt P25024 1-350, limits assumed); test: flow cytometry, supernatant at 5 nM IgG
T2 construct: whole, on cells; DiscoveRx PathHunter cell line; any reporter tag on the receptor is not described; also called CXCR1 receptor; CXCR1-U2OS
T2 sequence (looked up): T1 sequence (looked up)

CXCR1 [3] = target: T2, CXCR1; test: cell-based or functional assay; remark: listed apart in the source
CXCR1 [4] = target: T2, CXCR1; test: flow cytometry, supernatant at 5 nM IgG; remark: listed apart in the source
CXCR1 [5] = target: T2, CXCR1; test: flow cytometry on CXCR1-U2OS cells (parental U2OS: 5)
CXCR1 [6] = target: T2, CXCR1; test: flow cytometry, CXCR1-U2OS / parental U2OS
CXCR1 [7] = target: T2, CXCR1; test: flow cytometry, median fluorescence CXCR1-U2OS / parental U2OS

Chain of Kv1.3 (P22001 whole entry): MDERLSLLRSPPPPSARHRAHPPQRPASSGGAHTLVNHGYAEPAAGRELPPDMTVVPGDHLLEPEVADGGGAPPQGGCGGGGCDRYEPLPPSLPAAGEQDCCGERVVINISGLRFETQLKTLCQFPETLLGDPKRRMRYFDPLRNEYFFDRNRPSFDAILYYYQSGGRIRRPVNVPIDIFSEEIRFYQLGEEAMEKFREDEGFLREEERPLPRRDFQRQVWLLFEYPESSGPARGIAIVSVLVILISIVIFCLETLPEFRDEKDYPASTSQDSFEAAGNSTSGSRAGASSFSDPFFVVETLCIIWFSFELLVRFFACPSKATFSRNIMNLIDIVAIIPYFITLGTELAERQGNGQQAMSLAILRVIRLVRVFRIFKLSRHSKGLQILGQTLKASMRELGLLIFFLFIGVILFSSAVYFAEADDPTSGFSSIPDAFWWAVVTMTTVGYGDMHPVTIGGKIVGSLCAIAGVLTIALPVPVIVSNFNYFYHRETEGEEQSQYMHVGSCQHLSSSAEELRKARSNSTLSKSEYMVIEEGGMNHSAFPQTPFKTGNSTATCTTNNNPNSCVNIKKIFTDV

B1: BLV1H12 GGS3:3 Moka (antibody)
VH: QVQLRESGPSLVKPSQTLSLTCTASGFSLSDKAVGWVRQAPGKALEWLGSIDTGGNTGYNPGLKSRLSITKDNSKSQVSLSVSSVTTEDSATYYCTSVHQETKKYQSGGSGGSGGSGINVKCSLPQQCIKPCKDAGMRFGKCMNKKCRCYSGGSGGSGGSSYTYNYEWHVDVWGQGLLVTVSSAS
light: not shown
EC50 (nM), inhibition of T-cell activation, IL-2 secretion, Donor 1 (Kv1.3): 14.4 nM | EC50 (nM), inhibition of T-cell activation, IL-2 secretion, Donor 2 (Kv1.3): 40.2 nM | EC50 (nM), inhibition of T-cell activation, TNFα secretion, Donor 1 (Kv1.3): 19.3 nM | EC50 (nM), inhibition of T-cell activation, TNFα secretion, Donor 2 (Kv1.3): 38.2 nM

B2: BLV1H12 GLLV 3xG4S ShK (antibody)
VH: QVQLRESGPSLVKPSQTLSLTCTASGFSLSDKAVGWVRQAPGKALEWLGSIDTGGNTGYNPGLKSRLSITKDNSKSQVSLSVSSVTTEDSATYYCTSVHQETKKYQSGGGGSGGGGSGGGGSGGRSCIDTIPKSRCTAFQCKHSMKYRLSFCRKTCGTCGGGGSGGGGSGGGGSSYTYNYEWHVDVWGQGLLVTVSSAS
light: not shown
EC50 (nM), inhibition of T-cell activation, IL-2 secretion, Donor 1 (Kv1.3): 0.1 nM | EC50 (nM), inhibition of T-cell activation, IL-2 secretion, Donor 2 (Kv1.3): 0.03 nM | EC50 (nM), inhibition of T-cell activation, TNFα secretion, Donor 1 (Kv1.3): 6.5 nM | EC50 (nM), inhibition of T-cell activation, TNFα secretion, Donor 2 (Kv1.3): 0.2 nM

B3: VH4-34 MutE IL-8 5R6E31D32K50S (antibody, human IgG1)
VH: QVQLREWGAGLLKPSETLSLTCAVYGGSFSDKYWSWIRQPPGKGLEWIGSINHSGSTNYNPSLKSRVTISVDTSKNQFSLKLSSVTAADTAVYYCTSVHQETKKYQSPRSAKELRCQCIKTYSKPFHPKFIKELRVIESGPHCANTEIIVKLSDGRELCLDPKENWVQRVVEKFLKRAENSGSGSYTYNYEWHVDVWGQGLLVTVSS
light: QAVLNQPSSVSGSLGQKVTISCSGSSSNIGNNYVSWYQQLPGTAPRTLIYGDTKRPSGIPDRFSGSKSGTSATLGITGLQTGDEADYYCASAEDSSSNAVFGSGTTLTVLGQPKAAPSVTLFPPSSEELQANKATLVCLISDFYPGAVTVAWKADSSPVKAGVETTTPSKQSNNKYAASSYLSLTPEQWKSHRSYSCQVTHEGSTVEKTVAPTECS
CXCR1 activation, luminescence, 0.1 nM IL-8 domains (CXCR1 [1]): 4060 luminescence | CXCR1 activation, luminescence, 0.5 nM IL-8 domains (CXCR1 [1]): 5300 luminescence | CXCR1 activation, luminescence, 2.2 nM IL-8 domains (CXCR1 [1]): 10300 luminescence | CXCR1 activation, luminescence, 9.9 nM IL-8 domains (CXCR1 [1]): 17100 luminescence | CXCR1 activation, luminescence, 44 nM IL-8 domains (CXCR1 [1]): 23300 luminescence | CXCR1 activation, luminescence, 200 nM IL-8 domains (CXCR1 [1]): 22300 luminescence

B4: VH4-34 MutF IL-8 5R6E CD1cow (antibody, human IgG1)
VH: B3 VH with A23T, V24A, Y25S, G27F, F29L, Y33A, W34V, S35G, S50E
light: B3 light
CXCR1 activation, luminescence, 0.1 nM IL-8 domains (CXCR1 [1]): 4180 luminescence | CXCR1 activation, luminescence, 0.5 nM IL-8 domains (CXCR1 [1]): 6620 luminescence | CXCR1 activation, luminescence, 2.2 nM IL-8 domains (CXCR1 [1]): 13500 luminescence | CXCR1 activation, luminescence, 9.9 nM IL-8 domains (CXCR1 [1]): 21900 luminescence | CXCR1 activation, luminescence, 44 nM IL-8 domains (CXCR1 [1]): 24000 luminescence | CXCR1 activation, luminescence, 200 nM IL-8 domains (CXCR1 [1]): 25000 luminescence

B5: VH4-34+CDR3-IL8_CDR2 Cow / VL1-51 S2A, T5N, P8S, A12G, A13S, P14L, D51G, N52D, N53T IgG (antibody)
VH: QVQLQQWGAGLLKPSETLSLTCAVYGGSFSGYYWSWIRQPPGKGLEWLGSIDTGGNTGYNPSLKSRVTISVDTSKNQFSLKLSSVTAADTAVYYCTSVHQETKKYQSPRSAKELRCQCIKTYSKPFHPKFIKELRVIESGPHCANTEIIVKLSDGRELCLDPKENWVQRVVEKFLKRAENSGSGSYTYNYEWHVDVWGQGLLVTVSSAS
light: B3 light with R46K, T47L
notes: nt HC 433, LC 444
Specific Binding (CXCR1-Cell median AFU / Parental Cell median AFU) (CXCR1 [2]): 4

B6: VH4-34+CDR3-IL8 / VL1-51 S2A, T5N, P8S, A12G, A13S, P14L, K46R, L47T, D51G, N52D, N53T IgG (antibody)
VH: B5 VH with L48I, S50E, D52N, T53H, G54S, N56S, G58N
light: B3 light
notes: nt HC 430, LC 486
Specific Binding (CXCR1-Cell median AFU / Parental Cell median AFU) (CXCR1 [2]): 12

B7: VH4-34+CDR3-IL8_CDR2 E50S / VL1-51 S2A, T5N, P8S, A12G, A13S, P14L IgG (antibody)
VH: B5 VH with L48I, D52N, T53H, G54S, N56S, G58N
light: B3 light with R46K, T47L, G51D, D52N, T53N
Specific Binding (CXCR1-Cell median AFU / Parental Cell median AFU) (CXCR1 [2]): 4

B8: VH4-34+CDR3-IL8_CDR2 Cow / VL1-51 S2A, T5N, P8S, A12G, A13S, P14L, K46R, L47T, D51G, N52D, N53T IgG (antibody)
VH: B5 VH
light: B3 light
notes: nt HC 433, LC 486
Specific Binding (CXCR1-Cell median AFU / Parental Cell median AFU) (CXCR1 [2]): 3

B9: VH4-34+CDR3-IL8_CDR1-G31DY32K_CDR2-E50S / VL1-51 S2A, T5N, P8S, A12G, A13S, P14L, K46R, L47T, D51G, N52D, N53T IgG (antibody)
VH: B5 VH with G31D, Y32K, L48I, D52N, T53H, G54S, N56S, G58N
light: B3 light
notes: also called BID 37; VH4-34 MutC IL-8 31D32K50S
CXCR1 activation, luminescence at 0.4 nM IL-8 domains (CXCR1 [3]): 5420 | CXCR1 activation, luminescence at 1.6 nM IL-8 domains (CXCR1 [3]): 5710 | CXCR1 activation, luminescence at 6.25 nM IL-8 domains (CXCR1 [3]): 7160 | CXCR1 activation, luminescence at 25 nM IL-8 domains (CXCR1 [3]): 11200 | CXCR1 activation, luminescence at 100 nM IL-8 domains (CXCR1 [3]): 15500 | Specific Binding (CXCR1-Cell median AFU / Parental Cell median AFU) (CXCR1 [2]): 18

B10: VH4-34+CDR3-IL8_CDR2 E50S / VL1-51 S2A, T5N, P8S, A12G, A13S, P14L, K46R, L47T, D51G, N52D, N53T IgG (antibody)
VH: B5 VH with L48I, D52N, T53H, G54S, N56S, G58N
light: B3 light
Specific Binding (CXCR1-Cell median AFU / Parental Cell median AFU) (CXCR1 [2]): 5

B11: VH4-34+CDR3-IL8_CDR1-G31DY32K_CDR2-E50S_Q5RQ6E / VL1-51 S2A, T5N, P8S, A12G, A13S, P14L, K46R, L47T, D51G, N52D, N53T IgG (antibody)
VH: B3 VH
light: B3 light
notes: also called BID 38; VH4-34 MutE IL-8 5R6E31D32K50S
CXCR1 activation, luminescence at 0.4 nM IL-8 domains (CXCR1 [3]): 6190 | CXCR1 activation, luminescence at 1.6 nM IL-8 domains (CXCR1 [3]): 8160 | CXCR1 activation, luminescence at 6.25 nM IL-8 domains (CXCR1 [3]): 13500 | CXCR1 activation, luminescence at 25 nM IL-8 domains (CXCR1 [3]): 21000 | CXCR1 activation, luminescence at 100 nM IL-8 domains (CXCR1 [3]): 25900 | Specific Binding (CXCR1-Cell median AFU / Parental Cell median AFU) (CXCR1 [4]): 4

B12: VH4-34+CDR3-IL8_CDR1-Cow_CDR2-Cow / VL1-51 S2A, T5N, P8S, A12G, A13S, P14L, K46R, L47T, D51G, N52D, N53T IgG (antibody)
VH: B5 VH with A23T, V24A, Y25S, G27F, F29L, G31D, Y32K, Y33A, W34V, S35G
light: B3 light
notes: also called BID 39; VH4-34 MutD IL-8 CDR1cow CDR2cow
CXCR1 activation, luminescence at 0.4 nM IL-8 domains (CXCR1 [3]): 6310 | CXCR1 activation, luminescence at 1.6 nM IL-8 domains (CXCR1 [3]): 7400 | CXCR1 activation, luminescence at 6.25 nM IL-8 domains (CXCR1 [3]): 10200 | CXCR1 activation, luminescence at 25 nM IL-8 domains (CXCR1 [3]): 15400 | CXCR1 activation, luminescence at 100 nM IL-8 domains (CXCR1 [3]): 21600 | Specific Binding (CXCR1-Cell median AFU / Parental Cell median AFU) (CXCR1 [2]): 13

B13: VH1-24+CDR3-IL8 IgG (antibody)
VH: QVQLVQSGAEVKKPGASVKVSCKVSGYTLTELSMHWVRQAPGKGLEWMGGFDPEDGETIYAQKFQGRVTMTEDTSTDTAYMELSSLRSEDTAVYYCTSVHQETKKYQSPRSAKELRCQCIKTYSKPFHPKFIKELRVIESGPHCANTEIIVKLSDGRELCLDPKENWVQRVVEKFLKRAENSGSGSYTYNYEWHVDVWGQGLLVTVSSAS
light: not shown
notes: also called VH1-24 BLVCDR3IL8
median AFU on CXCR1-U2OS (CXCR1 [5]): 23 AFU

B14: BLV1H12 IgG (antibody)
VH: QVQLRESGPSLVKPSQTLSLTCTASGFSLSDKAVGWVRQAPGKALEWLGSIDTGGNTGYNPGLKSRLSITKDNSKSQVSLSVSSVTTEDSATYYCTSVHQETKKYQSCPDGYRERSDCSNRPACGTSDCCRVSVFGNCLTTLPVSYSYTYNYEWHVDVWGQGLLVTVSS
light: not shown
notes: also called ULcowV
FACS CXCR1/Parental Ratio (CXCR1 [6]): 1.9 | median AFU on CXCR1-U2OS (CXCR1 [5]): 9 AFU | Ratio of CXCR1/Parental (CXCR1 [7]): 1.9

B15: VH1-46+CDR3-IL8 IgG (antibody)
VH: QVQLVQSGAEVKKPGASVKVSCKASGYTFTSYYMHWVRQAPGQGLEWMGIINPSGGSTSYAQKFQGRVTMTRDTSTSTVYMELSSLRSEDTAVYYCTSVHQETKKYQSPRSAKELRCQCIKTYSKPFHPKFIKELRVIESGPHCANTEIIVKLSDGRELCLDPKENWVQRVVEKFLKRAENSGSGSYTYNYEWHVDVWGQGLLVTVSSAS
light: not shown
notes: also called VH1-46 BLVCDR3IL8
median AFU on CXCR1-U2OS (CXCR1 [5]): 6 AFU

Reference: patent US20230287598A1 (TAURUS BIOSCIENCES, published 2023)
